The text below walks through data of article PMC3787020.

The target of experiment [1] is C33S mutant human TGF-β1 (pro-TGF-β1 and latent TGF-β1), expressed in 293 cells (human). As to the kind of experiment: non-reducing SDS-PAGE and western blot of immunoprecipitates; anti-GARP IP products of cell lysates; SDS-PAGE under non-reducing conditions; WB with anti-LAP antibodies. On the technique in general: Immunoblotting shows a protein as a band on a membrane.

Experiment [2] has as its target C33S mutant human TGF-β1 (pro-TGF-β1 and latent TGF-β1), expressed in murine BW5147 T cells (human). Described as above.
The target in experiment [3] is TGF-β1 (pro-TGF-β1 and latent TGF-β1), endogenous in human T cells (human (endogenous in human T cells)). Kind of experiment: non-reducing SDS-PAGE and western blot of culture supernatants; cells incubated in serum-free medium for 24 or 48 hours; supernatants analysed by WB under non-reducing conditions with anti-GARP and anti-LAP antibodies.
Experiment [4] has as its target wild type human TGF-β1 (pro-TGF-β1 and latent TGF-β1), expressed in 293 cells (human). Described as above.

Turning to “C33S mutant human TGF-β1 (pro-TGF-β1 and latent TGF-β1), expressed in 293 cells (ligand)”, the stoichiometry N in experiment [1] worked out at 2.

“C33S mutant human TGF-β1 (pro-TGF-β1 and latent TGF-β1), expressed in murine BW5147 T cells (ligand)” yielded a stoichiometry N in experiment [2] of 2.

Regarding “TGF-β1 (pro-TGF-β1 and latent TGF-β1), endogenous in human T cells (ligand)”, the stoichiometry N in experiment [3] came to 2.

As to “wild type human TGF-β1 (pro-TGF-β1 and latent TGF-β1), expressed in 293 cells (ligand)”, the stoichiometry N in experiment [4] stood at 2.

The term stoichiometry N denotes a count of units in the complex or per binding partner.
